Measurements reported in patent US20150344570A1 (published 2015).

B1: GpH7-A5/GpH7-B3 variant D270_01G/GpL16-k0 (antibody, human IgG1, kappa)
heavy 1: not shown
heavy 2: not shown
light: DIVMTQSPLSLPVTPGEPASISCQASESLVHSNRNTYLHWYLQKPGQSPQLLIYKVSNRFSGVPDRFSGSGSGTDFTLKISRVEAEDVGVYYCSQNTHVPPTFGQGTKVEIERTVAAPSVFIFPPSDEQLKSGTASVVCLLNNFYPREAKVQWKVDNALQSGNSQESVTEQDSKDSTYSLSSTLTLSKADYEKHKVYACEVTHQGLSSPVTKSFNRGEC
notes: Heterodimerized anti-glypican-3 IgG1 (He Ab); mutation in the B3 H chain only; also called He Ab
B2: GpH7-A5/GpH7-B3 variant E269_13S/GpL16-k0 (antibody, human IgG1, kappa)
heavy 1: not shown
heavy 2: not shown
light: B1 light
notes: as for B1
B3: GpH7-A5/GpH7-B3 variant E269_06M/GpL16-k0 (antibody, human IgG1, kappa)
heavy 1: not shown
heavy 2: not shown
light: B1 light
notes: as for B1
B4: GpH7-A5/GpH7-B3 variant E269_12R/GpL16-k0 (antibody, human IgG1, kappa)
heavy 1: not shown
heavy 2: not shown
light: B1 light
notes: as for B1
B5: GpH7-A5/GpH7-B3 variant D270_11K/GpL16-k0 (antibody, human IgG1, kappa)
heavy 1: not shown
heavy 2: not shown
light: B1 light
notes: as for B1
B6: GpH7-A5/GpH7-B3 variant E269_11K/GpL16-k0 (antibody, human IgG1, kappa)
heavy 1: not shown
heavy 2: not shown
light: B1 light
notes: as for B1
B7: GpH7-A5/GpH7-B3 variant E269_14T/GpL16-k0 (antibody, human IgG1, kappa)
heavy 1: not shown
heavy 2: not shown
light: B1 light
notes: as for B1
B8: GpH7-A5/GpH7-B3 variant D270_06M/GpL16-k0 (antibody, human IgG1, kappa)
heavy 1: not shown
heavy 2: not shown
light: B1 light
notes: as for B1
B9: GpH7-A5/GpH7-B3 variant D270_03V/GpL16-k0 (antibody, human IgG1, kappa)
heavy 1: not shown
heavy 2: not shown
light: B1 light
notes: as for B1
B10: GpH7-A5/GpH7-B3 variant D270_20W/GpL16-k0 (antibody, human IgG1, kappa)
heavy 1: not shown
heavy 2: not shown
light: B1 light
notes: as for B1
B11: GpH7-A5/GpH7-B3 variant D270_14T/GpL16-k0 (antibody, human IgG1, kappa)
heavy 1: not shown
heavy 2: not shown
light: B1 light
notes: as for B1
B12: GpH7-A5/GpH7-B3 variant D270_18N/GpL16-k0 (antibody, human IgG1, kappa)
heavy 1: not shown
heavy 2: not shown
light: B1 light
notes: as for B1
B13: GpH7-A5/GpH7-B3 variant D270_19Q/GpL16-k0 (antibody, human IgG1, kappa)
heavy 1: not shown
heavy 2: not shown
light: B1 light
notes: as for B1
B14: GpH7-A5/GpH7-B3 variant D270_12R/GpL16-k0 (antibody, human IgG1, kappa)
heavy 1: not shown
heavy 2: not shown
light: B1 light
notes: as for B1
B15: GpH7-A5/GpH7-B3 variant D270_07I/GpL16-k0 (antibody, human IgG1, kappa)
heavy 1: not shown
heavy 2: not shown
light: B1 light
notes: as for B1
B16: GpH7-A5/GpH7-B3 variant E269_15Y/GpL16-k0 (antibody, human IgG1, kappa)
heavy 1: not shown
heavy 2: not shown
light: B1 light
notes: as for B1
B17: GpH7-A5/GpH7-B3 variant D270_02A/GpL16-k0 (antibody, human IgG1, kappa)
heavy 1: not shown
heavy 2: not shown
light: B1 light
notes: as for B1
B18: GpH7-A5/GpH7-B3 variant D270_13S/GpL16-k0 (antibody, human IgG1, kappa)
heavy 1: not shown
heavy 2: not shown
light: B1 light
notes: as for B1
B19: GpH7-A5/GpH7-B3 variant E269_07I/GpL16-k0 (antibody, human IgG1, kappa)
heavy 1: not shown
heavy 2: not shown
light: B1 light
notes: as for B1
B20: GpH7-A5/GpH7-B3 variant D270_15Y/GpL16-k0 (antibody, human IgG1, kappa)
heavy 1: not shown
heavy 2: not shown
light: B1 light
notes: as for B1
B21: GpH7-A5/GpH7-B3 variant E269_04F/GpL16-k0 (antibody, human IgG1, kappa)
heavy 1: not shown
heavy 2: not shown
light: B1 light
notes: as for B1
B22: GpH7-A5/GpH7-B3 variant D270_04F/GpL16-k0 (antibody, human IgG1, kappa)
heavy 1: not shown
heavy 2: not shown
light: B1 light
notes: as for B1
B23: GpH7-A5/GpH7-B3 variant E269_08L/GpL16-k0 (antibody, human IgG1, kappa)
heavy 1: not shown
heavy 2: not shown
light: B1 light
notes: as for B1
B24: GpH7-A5/GpH7-B3 variant D270_08L/GpL16-k0 (antibody, human IgG1, kappa)
heavy 1: not shown
heavy 2: not shown
light: B1 light
notes: as for B1
B25: GpH7-A5/GpH7-B3 variant D270_16H/GpL16-k0 (antibody, human IgG1, kappa)
heavy 1: not shown
heavy 2: not shown
light: B1 light
notes: as for B1
B26: GpH7-A5/GpH7-B3 variant E269_02A/GpL16-k0 (antibody, human IgG1, kappa)
heavy 1: not shown
heavy 2: not shown
light: B1 light
notes: as for B1
B27: GpH7-A5/GpH7-B3 variant E269_03V/GpL16-k0 (antibody, human IgG1, kappa)
heavy 1: not shown
heavy 2: not shown
light: B1 light
notes: as for B1
B28: GpH7-A5/GpH7-B3 variant D270_10E/GpL16-k0 (antibody, human IgG1, kappa)
heavy 1: not shown
heavy 2: not shown
light: B1 light
notes: as for B1
B29: GpH7-A5/GpH7-B3 variant E269_16H/GpL16-k0 (antibody, human IgG1, kappa)
heavy 1: not shown
heavy 2: not shown
light: B1 light
notes: as for B1

What follows are binders tested against T1, FcγRIIa H (human, UniProt P12318 34-217) (assay: ratio of He/Con_2aH to He/Con_2b (FcγRIIb); SPR).
T1 construct: extracellular domain; also called FcγRIIa type H; 2aH
T1 sequence (looked up): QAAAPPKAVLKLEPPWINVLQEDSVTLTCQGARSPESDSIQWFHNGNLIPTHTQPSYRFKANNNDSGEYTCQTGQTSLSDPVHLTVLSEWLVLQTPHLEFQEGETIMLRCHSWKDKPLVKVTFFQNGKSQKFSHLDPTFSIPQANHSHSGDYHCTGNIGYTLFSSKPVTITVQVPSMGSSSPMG

Binder | He_2aH/2b (IIaH/IIb ratio)
B1 | 1.72
B2 | 1.46
B3 | 1.58
B4 | 1.86
B5 | 2.17
B6 | 2.87
B7 | 1.37
B8 | 1.54
B9 | 1.56
B10 | 1.74
B11 | 1.3
B12 | 1.55
B13 | 1.77
B14 | 2.16
B15 | 1.54
B16 | 1.57
B17 | 1.58
B18 | 1.61
B19 | 1.52
B20 | 1.6
B21 | 1.52
B22 | 1.42
B23 | 1.57
B24 | 1.41
B25 | 1.51
B26 | 1.56
B27 | 1.49
B28 | 1.34
B29 | 1.53

The binders below were run against T1, FcγRIIa H (assay: SPR (Biacore), captured antibody, FcγR as analyte; GpH7-A5/GpH7-B3/GpL16-k0 = 100).
Procedure: (§1) The heterodimerized antibodies He Abs in which one of the H chains was introduced with an alteration were assayed for their binding activities to each activating FcγR and inhibitory FcγR according to the method described in Example 4. […] The activating FcγRs in FIGS. 26, 27, 28, and 29 are FcγRIa, FcγRIIa (R), FcγRIIa (H), and FcγRIIIa, respectively.
(§2) Analysis of interaction between objective antibody and the FcγR was carried out using Biacore T100 (GE Healthcare). HBS-EP+ (GE Healthcare) was used as the running buffer, and the measurement temperature was set to 25° C. Chips produced by immobilizing the antigen peptide by the amine coupling method to a Series S Sencor Chip CM5 (GE Healthcare), or alternatively, chips produced by allowing preliminarily biotinylated antigen peptides to interact with and immobilize onto a Series S Sensor Chip SA (certified) (GE Healthcare) were used. Antibodies of interest were captured onto an antigen peptide-immobilized chip, and allowed to interact to each FcγR diluted with running buffer. To regenerate and repeatedly use the chip, the antibodies captured on the chip were washed off by reacting 10 mM glycine-HCl, pH 1.5.

Binder | He/Con_2aH (relative binding) [%]
B1 | 52.5
B2 | 70
B3 | 73.6
B4 | 46.8
B5 | 44
B6 | 51.1
B7 | 69.6
B8 | 74.4
B9 | 61.8
B10 | 60.2
B11 | 75.3
B12 | 62.5
B13 | 85
B14 | 39.5
B15 | 64
B16 | 70.4
B17 | 76.4
B18 | 71.2
B19 | 66.6
B20 | 71.9
B21 | 68.5
B22 | 75.4
B23 | 67.4
B24 | 75.8
B25 | 71.5
B26 | 77.8
B27 | 67.5
B28 | 102
B29 | 59

Each binder was assayed against T2, FcγRIIb (human, UniProt P31994 43-217) in the same assay as above.
T2 construct: extracellular domain; also called 2b; FcgRIIb
T2 sequence (looked up): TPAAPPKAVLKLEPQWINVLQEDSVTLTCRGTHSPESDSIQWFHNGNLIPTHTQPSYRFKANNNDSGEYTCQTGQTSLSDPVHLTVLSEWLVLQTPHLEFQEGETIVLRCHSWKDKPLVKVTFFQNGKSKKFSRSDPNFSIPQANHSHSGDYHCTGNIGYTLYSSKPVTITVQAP
Procedure: as §1, §2

Binder | He/Con_2b (relative binding) [%]
B1 | 30.5
B2 | 47.8
B3 | 46.7
B4 | 25.2
B5 | 20.3
B6 | 17.8
B7 | 50.6
B8 | 48.2
B9 | 39.5
B10 | 34.7
B11 | 57.8
B12 | 40.3
B13 | 48
B14 | 18.3
B15 | 41.5
B16 | 44.7
B17 | 48.3
B18 | 44.2
B19 | 43.9
B20 | 44.9
B21 | 45
B22 | 53.1
B23 | 42.9
B24 | 53.6
B25 | 47.2
B26 | 49.9
B27 | 45.1
B28 | 76.5
B29 | 38.5
